Assay results published in patent publication US20200377590A1 (Hoffmann-La Roche, published 2020).
Positions count from the first letter of the chain named.

T1: CD81 (UniProt P60033 1-236, limits assumed)
T1 construct: whole, on cells; also called CD81 receptor
T1 sequence (looked up): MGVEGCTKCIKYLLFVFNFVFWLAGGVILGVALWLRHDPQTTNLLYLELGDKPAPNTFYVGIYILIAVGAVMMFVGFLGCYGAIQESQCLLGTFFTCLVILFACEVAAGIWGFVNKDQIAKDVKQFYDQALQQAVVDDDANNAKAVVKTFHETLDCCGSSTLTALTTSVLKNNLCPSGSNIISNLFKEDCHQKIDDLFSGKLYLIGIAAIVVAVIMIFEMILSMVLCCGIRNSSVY

B1: CD81K04 HC JA_GG-15-hVH_1_3 / LC GG-04-hVK_4_1 (antibody, V domains shown)
VH: QVQLVQSGAEVKKPGASVKVSCKASGYTFSSSWMNWVRQAPGQRLEWMGRIYSGDGDAIYNGKFKGRVTITADTSASTAYMELSSLRSEDTAVYYCAREGKTGDLLLRSWGQGTLVTVSS
VL: DIVMTQSPDSLAVSLGERATINCKSSKSVSTSIYSYLAWYQQKPGQPPKLLIYYASTRESGVPDRFSGSGSGTDFTLTISSLQAEDVAVYYCQHSREFPYTFGQGTKLEIK
notes: human constant region
B2: CD81K04 HC GG-02-hVH_1_69 / LC GG-05-hVK_3_11 (antibody, V domains shown)
VH: B1 VH with A16S, R44G, G62Q, K65Q, T74E, A76T
VL: EIVLTQSPATLSLSPGERATLSCRASKSVSTSIYSYLHWYQQKPGQAPRLLIYYASNRETGIPARFSGSGSGTDFTLTISSLEPEDFAVYYCQHSREFPFTFGQGTKLEIK
notes: human constant region
B3: CD81K04 HC GG-02-hVH_1_69 / LC JA_GG-07-hVK_7_3 (antibody, V domains shown)
VH: B1 VH with A16S, R44G, G62Q, K65Q, T74E, A76T
VL: DIVLTQSPASLAVSPGQRATITCRASKSVSTSIYSYMHWYQQKPGQPPKLLIKYASNKDTGVPARFSGSGSGTDFTLTINPVEANDAANYYCLHSREFPYTFGQGTKLEIK
notes: human constant region
B4: CD81K04 HC JA_GG-16-hVH_1_3 / LC GG-02-hVK_4_1 (antibody, V domains shown)
VH: B1 VH with R44G
VL: B1 VL with L37M, A38H, T57Y, Y100F
notes: human constant region
B5: CD81K04 HC K04_JA_GG-17-hVH_1_3 / LC JA_GG-10-hVK_4_1 (antibody, V domains shown)
VH: B1 VH with A58T, N61S, G62Q, K65Q
VL: B1 VL with K24R, S25A, L37M, A38H, Y53K, T57Y, R58L, Q93E, Y100F
notes: human constant region
B6: CD81K04 HC K04_JA-13-hVH_1_3 / LC JA_GG-07-hVK_7_3 (antibody, V domains shown)
VH: B1 VH with A72R
VL: B3 VL
notes: human constant region
B7: CD81K04 HC JA_GG-16-hVH_1_3 / LC JA_GG-10-hVK_4_1 (antibody, V domains shown)
VH: B1 VH with R44G
VL: B1 VL with K24R, S25A, L37M, A38H, Y53K, T57Y, R58L, Q93E, Y100F
notes: human constant region
B8: CD81K04 HC JA_GG-15-hVH_1_3 / LC JA_GG-10-hVK_4_1 (antibody, V domains shown)
VH: B1 VH
VL: B1 VL with K24R, S25A, L37M, A38H, Y53K, T57Y, R58L, Q93E, Y100F
notes: human constant region
B9: CD81K04 HC K04_JA_GG-17-hVH_1_3 / LC GG-04-hVK_4_1 (antibody, V domains shown)
VH: B1 VH with A58T, N61S, G62Q, K65Q
VL: B1 VL
notes: human constant region
B10: CD81K04 HC K04_JA-13-hVH_1_3 / LC GG-03-hVK_4_1 (antibody, V domains shown)
VH: B1 VH with A72R
VL: B1 VL with T57Y, Y100F
notes: human constant region
B11: CD81K04 HC K04_JA-13-hVH_1_3 / LC JA_GG-10-hVK_4_1 (antibody, V domains shown)
VH: B1 VH with A72R
VL: B1 VL with K24R, S25A, L37M, A38H, Y53K, T57Y, R58L, Q93E, Y100F
notes: human constant region
B12: CD81K04 HC JA_GG-14-hVH_1_3 / LC JA_GG-07-hVK_7_3 (antibody, V domains shown)
VH: B1 VH with R44G, V68A
VL: B3 VL
notes: human constant region
B13: CD81K04 HC JA_GG-15-hVH_1_3 / LC JA_GG-08-hVK_4_1 (antibody, V domains shown)
VH: B1 VH
VL: B1 VL with L37M, A38H, Y53K, T57Y, R58L, Q93E, Y100F
notes: human constant region
B14: CD81K04 HC K04_JA-13-hVH_1_3 / LC GG-02-hVK_4_1 (antibody, V domains shown)
VH: B1 VH with A72R
VL: B1 VL with L37M, A38H, T57Y, Y100F
notes: human constant region
B15: CD81K04 HC JA_GG-16-hVH_1_3 / LC GG-04-hVK_4_1 (antibody, V domains shown)
VH: B1 VH with R44G
VL: B1 VL
notes: human constant region
B16: CD81K04 HC GG-05-hVH_1_18 / LC JA_GG-07-hVK_7_3 (antibody, V domains shown)
VH: B1 VH with R44G, N61A, G62Q, F64L, K65Q, I70M, A72T, A76T, S84R, E89D
VL: B3 VL
notes: human constant region
B17: CD81K04 HC GG-03-hVH_1_69 / LC JA_GG-07-hVK_7_3 (antibody, V domains shown)
VH: B1 VH with A16S, R44G, N61A, G62Q, K65Q, T74E, A76T
VL: B3 VL
notes: human constant region
B18: CD81K04 HC K04_JA_GG-17-hVH_1_3 / LC JA_GG-09-hVK_4_1 (antibody, V domains shown)
VH: B1 VH with A58T, N61S, G62Q, K65Q
VL: B1 VL with L37M, A38H, Y53K, Q93E, Y100F
notes: human constant region
B19: CD81K04 HC JA_GG-16-hVH_1_3 / LC GG-03-hVK_4_1 (antibody, V domains shown)
VH: B1 VH with R44G
VL: B1 VL with T57Y, Y100F
notes: human constant region
B20: CD81K04 HC GG-04-hVH_1_69 / LC GG-05-hVK_3_11 (antibody, V domains shown)
VH: B1 VH with A16S, R44G, G62Q, K65Q, V68A, T74E, A76T
VL: B2 VL
notes: human constant region
B21: CD81K04 HC GG-04-hVH_1_69 / LC JA_GG-07-hVK_7_3 (antibody, V domains shown)
VH: B1 VH with A16S, R44G, G62Q, K65Q, V68A, T74E, A76T
VL: B3 VL
notes: human constant region
B22: CD81K04 HC K04_JA-13-hVH_1_3 / LC JA_GG-08-hVK_4_1 (antibody, V domains shown)
VH: B1 VH with A72R
VL: B1 VL with L37M, A38H, Y53K, T57Y, R58L, Q93E, Y100F
notes: human constant region
B23: CD81K04 HC K04_JA-13-hVH_1_3 / LC JA_GG-09-hVK_4_1 (antibody, V domains shown)
VH: B1 VH with A72R
VL: B1 VL with L37M, A38H, Y53K, Q93E, Y100F
notes: human constant region
B24: CD81K04 HC K04_JA_GG-17-hVH_1_3 / LC JA_GG-08-hVK_4_1 (antibody, V domains shown)
VH: B1 VH with A58T, N61S, G62Q, K65Q
VL: B1 VL with L37M, A38H, Y53K, T57Y, R58L, Q93E, Y100F
notes: human constant region
B25: CD81K04 HC K04_JA-13-hVH_1_3 / LC GG-04-hVK_4_1 (antibody, V domains shown)
VH: B1 VH with A72R
VL: B1 VL
notes: human constant region
B26: CD81K04 HC JA_GG-15-hVH_1_3 / LC JA_GG-07-hVK_7_3 (antibody, V domains shown)
VH: B1 VH
VL: B3 VL
notes: human constant region
B27: CD81K04 HC K04_JA_GG-17-hVH_1_3 / LC JA_GG-07-hVK_7_3 (antibody, V domains shown)
VH: B1 VH with A58T, N61S, G62Q, K65Q
VL: B3 VL
notes: human constant region
B28: CD81K04 HC JA_GG-16-hVH_1_3 / LC JA_GG-07-hVK_7_3 (antibody, V domains shown)
VH: B1 VH with R44G
VL: B3 VL
notes: human constant region
B29: CD81K04 HC JA_GG-15-hVH_1_3 / LC JA_GG-09-hVK_4_1 (antibody, V domains shown)
VH: B1 VH
VL: B1 VL with L37M, A38H, Y53K, Q93E, Y100F
notes: human constant region
B30: CD81K04 HC K04_JA_GG-17-hVH_1_3 / LC GG-02-hVK_4_1 (antibody, V domains shown)
VH: B1 VH with A58T, N61S, G62Q, K65Q
VL: B1 VL with L37M, A38H, T57Y, Y100F
notes: human constant region
B31: CD81K04 HC JA_GG-16-hVH_1_3 / LC JA_GG-09-hVK_4_1 (antibody, V domains shown)
VH: B1 VH with R44G
VL: B1 VL with L37M, A38H, Y53K, Q93E, Y100F
notes: human constant region
B32: CD81K04 HC GG-03-hVH_1_69 / LC GG-05-hVK_3_11 (antibody, V domains shown)
VH: B1 VH with A16S, R44G, N61A, G62Q, K65Q, T74E, A76T
VL: B2 VL
notes: human constant region
B33: CD81K04 HC JA_GG-13-hVH_1_69 / LC JA_GG-07-hVK_7_3 (antibody, V domains shown)
VH: B1 VH with A16S, Y27G, R44G, N61A, G62Q, K65Q, T74E, A76T
VL: B3 VL
notes: human constant region

These binders were tested against T1, CD81 (assay: cell ELISA;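 note: antibody binding to HuH7 cells expressing CD81 versus a CD81-negative HuH7 control line, bound antibody detected by secondary reagent, absorbance at 450 nm with 620 nm reference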).

| ELISA data | Binder |
| --- | --- |
| 0.3 | B1 |
| 0.229 | B2 |
| 0.13 | B3 |
| 0.596 | B4 |
| 0.855 | B5 |
| 0.255 | B6 |
| 0.88 | B7 |
| 0.915 | B8 |
| 0.189 | B9 |
| 0.423 | B10 |
| 0.861 | B11 |
| 0.154 | B12 |
| 0.993 | B13 |
| 0.475 | B14 |
| 0.263 | B15 |
| 0.14 | B16 |
| 0.091 | B17 |

| ELISA data | Binder |
| --- | --- |
| 0.911 | B18 |
| 0.437 | B19 |
| 0.352 | B20 |
| 0.12 | B21 |
| 0.985 | B22 |
| 0.864 | B23 |
| 0.941 | B24 |
| 0.152 | B25 |
| 0.262 | B26 |
| 0.219 | B27 |
| 0.161 | B28 |
| 0.936 | B29 |
| 0.709 | B30 |
| 1.08 | B31 |
| 0.204 | B32 |
| 0.087 | B33 |
